This passage reports Ka and Kd results from patent publication US20030103948A1 (NEORX, published 2003).

The target of this experiment is T1, CD20 (human, UniProt P11836 1-297).
T1 construct: whole, on cells; also called CD20-positive Ramos cell line; Ramos cells
T1 sequence (looked up): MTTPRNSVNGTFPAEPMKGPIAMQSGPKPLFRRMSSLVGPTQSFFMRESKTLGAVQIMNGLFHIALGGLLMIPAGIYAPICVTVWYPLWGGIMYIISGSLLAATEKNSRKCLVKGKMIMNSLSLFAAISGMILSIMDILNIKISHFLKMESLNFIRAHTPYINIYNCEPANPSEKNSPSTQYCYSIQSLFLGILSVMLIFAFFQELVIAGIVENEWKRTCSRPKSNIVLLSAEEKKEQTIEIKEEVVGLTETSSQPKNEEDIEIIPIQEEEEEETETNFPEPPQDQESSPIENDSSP
The experiment can be described thus: saturation binding of radiolabeled antibody to Ramos cells (10^7 cells), nonlinear regression.

Method: Avidity was determined using saturation binding experiments that measure specific binding of radiolabeled mAb or fusion protein (0.025-50 ng/ml) at equilibrium in the presence of excess antigen (10⁷ cells). Nonspecific binding was determined in the presence of excess cold mAb or fusion protein (50 μg/ml). […] The equilibrium dissociation constant (Kd) was calculated from nonlinear regression analysis of nM bound vs. nM radioligand using immunoreactivity-adjusted antibody concentrations.
Kd and Kₐ were calculated using nonlinear regression analysis of nM bound vs. nM radioligand.

B1: B9E9 mAb (antibody, V domains shown)
VH: QVQLVQSGAELVKPGASVKMSCKASGYTFTSYNMHWVKQTPGQGLEWIGAIYPGNGDTSYNQKFKGKATLTADKSSSTAYMQLSSLTSEDSAVYYCARAQLRPNYWYFDVWGAGTTVTVSS
VL: DIVLSQSPAILSASPGEKVTMTCRASSSVSYMHWYQQKPGSSPKPWIYATSNLASGVPARFSGSGSGTSYSLTISRVEAEDAATYYCQQWISNPPTFGAGTKLELK
modifications: Used unlabelled, fluorescein-labelled (FACS tracer) and radiolabelled (avidity assay).
notes: also called divalent B9E9 antibody; murine anti-CD20 antibody B9E9
By Kd is commonly meant the concentration at which binding is half-saturated. Read a low Kd as tighter binding. B1 had a Ka of 1.02e+08 M⁻¹ and a Kd of 9.75 nM.
